Source: paper PMC7714071, “Interaction of amyloid beta with humanin and acetylcholinesterase is modulated by ATP” (FEBS Open Bio, 2020)

Test system: AChE-Aβ complex (H1299 cell-conditioned media)
Test: ELISA, AChE found in a complex with Aβ in H1299 cell-conditioned media
Assay type: binding, human
Conditions: Fig. 5C,D
Protocol: Human NSCLC cell lines, A549 (ATCC CCL‐185) and H1299 (ATCC CRL‐5803), were purchased from the American Type Culture Collection (ATCC, Manassas, VA, USA). Cells were seeded as we reported earlier in 5 mL HyClone Dulbecco's modified Eagle's medium/nutrient mixture F‐12 (DMEM/F12) (GE Healthcare Life Sciences, Pittsburgh, PA, USA), supplemented with 10% Fetalgro bovine growth serum (FBS; RMBIO, Missoula, MT, USA), 50 U·mL^−1 penicillin, and […] streptomycin (Invitrogen, Life Technologies, Carlsbad, CA, USA) in 25‐cm^2 tissue culture flasks, and allowed to grow overnight in an incubator at 37 °C, 95% humidity, and 5% CO2. The cells were counted after trypan blue staining, with a hemocytometer.
ELISAs were carried out as we previously reported. […] TBST was then used to wash the wells 4× before proceeding in one of two ways: (a) biotinylated samples were analyzed by adding 100 µL streptavidin–HRP conjugate in TBST (1 : 2500 dilution) to the samples followed by incubation for 3 h at RT on a shaker, or (b) samples without biotin were analyzed by adding 100 µL TBST containing the primary antibody as per the manufacturer's recommendation, incubating for 3 h at RT on a shaker, followed by washing the wells 4× with TBST. […] The reaction was stopped with 100 µL 2 M H2SO4 after incubating at RT for 0.5–15 min, resulting in a yellow color change, measured by absorbance at 450 nm. […]

B1: acetylcholinesterase (protein)
chain: EGREDAELLVTVRGGRLRGIRLKTPGGPVSAFLGIPFAEPPMGPRRFLPPEPKQPWSGVVDATTFQSVCYQYVDTLYPGFEGTEMWNPNRELSEDCLYLNVWTPYPRPTSPTPVLVWIYGGGFYSGASSLDVYDGRFLVQAERTVLVSMNYRVGAFGFLALPGSREAPGNVGLLDQRLALQWVQENVAAFGGDPTSVTLFGESAGAASVGMHLLSPPSRGLFHRAVLQSGAPNGPWATVGMGEARRRATQLAHLVGCPPGGTGGNDTELVACLRTRPAQVLVNHEWHVLPQESVFRFSFVPVVDGDFLSDTPEALINAGDFHGLQVLVGVVKDEGSYFLVYGAPGFSKDNESLISRAEFLAGVRVGVPQVSDLAAEAVVLHYTDWLHPEDPARLREALSDVVGDHNVVCPVAQLAGRLAAQGARVYAYVFEHRASTLSWPLWMGVPHGYEIEFIFGIPLDPSRNYTAEEKIFAQRLMRYWANFARTGDPNEPRDPKAPQWPPYTAGAQQYVSLDLRPLEVRRGLRAQACAFWNRFLPKLLSATDTLDEAERQWKAEFHRWSSYMVHWKNQFDHYSKQDRCSDL
  AChE detected in complex with Aβ: No AChE was detected above background
